Experimental findings from patent US20220056092A1 are described below.

For the test, the target named is IL12 receptor on bystander (GFP+) T cells (human) (UniProt P42701). Put plainly: cell-based or functional assay.
Sequence of IL12 receptor on bystander (GFP+) T cells (human) (Q99665 24-862, chain 2 of 2, other chains not shown): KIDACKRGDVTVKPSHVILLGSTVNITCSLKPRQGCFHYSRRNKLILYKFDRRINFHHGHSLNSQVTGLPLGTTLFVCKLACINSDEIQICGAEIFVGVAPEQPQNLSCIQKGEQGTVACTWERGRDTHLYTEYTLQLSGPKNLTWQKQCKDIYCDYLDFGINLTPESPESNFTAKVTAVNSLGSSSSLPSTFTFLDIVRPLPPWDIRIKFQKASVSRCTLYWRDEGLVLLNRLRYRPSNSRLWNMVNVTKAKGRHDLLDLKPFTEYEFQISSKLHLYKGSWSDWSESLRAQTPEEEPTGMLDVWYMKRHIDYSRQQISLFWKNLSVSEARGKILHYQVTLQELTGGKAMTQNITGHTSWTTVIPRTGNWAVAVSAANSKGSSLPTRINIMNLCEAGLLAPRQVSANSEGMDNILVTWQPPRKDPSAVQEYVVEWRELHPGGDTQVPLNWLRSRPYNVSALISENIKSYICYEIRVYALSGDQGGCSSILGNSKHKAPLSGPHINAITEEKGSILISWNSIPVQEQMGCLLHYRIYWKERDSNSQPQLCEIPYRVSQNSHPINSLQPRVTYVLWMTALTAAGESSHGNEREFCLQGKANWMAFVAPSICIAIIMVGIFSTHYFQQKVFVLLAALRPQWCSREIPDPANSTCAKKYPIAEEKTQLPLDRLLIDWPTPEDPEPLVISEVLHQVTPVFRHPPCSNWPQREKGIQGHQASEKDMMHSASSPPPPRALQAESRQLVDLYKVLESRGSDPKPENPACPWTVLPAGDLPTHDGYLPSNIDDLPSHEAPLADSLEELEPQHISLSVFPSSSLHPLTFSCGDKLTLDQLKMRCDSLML

Sequence of secreted IL12 encoded by OT-001356 (ORF2: p40 signal sequence; p40 (23-328 of WT); Linker ((G4S)3); p35 (57-253 of WT); BamHI (GS)) (ligand) (chain): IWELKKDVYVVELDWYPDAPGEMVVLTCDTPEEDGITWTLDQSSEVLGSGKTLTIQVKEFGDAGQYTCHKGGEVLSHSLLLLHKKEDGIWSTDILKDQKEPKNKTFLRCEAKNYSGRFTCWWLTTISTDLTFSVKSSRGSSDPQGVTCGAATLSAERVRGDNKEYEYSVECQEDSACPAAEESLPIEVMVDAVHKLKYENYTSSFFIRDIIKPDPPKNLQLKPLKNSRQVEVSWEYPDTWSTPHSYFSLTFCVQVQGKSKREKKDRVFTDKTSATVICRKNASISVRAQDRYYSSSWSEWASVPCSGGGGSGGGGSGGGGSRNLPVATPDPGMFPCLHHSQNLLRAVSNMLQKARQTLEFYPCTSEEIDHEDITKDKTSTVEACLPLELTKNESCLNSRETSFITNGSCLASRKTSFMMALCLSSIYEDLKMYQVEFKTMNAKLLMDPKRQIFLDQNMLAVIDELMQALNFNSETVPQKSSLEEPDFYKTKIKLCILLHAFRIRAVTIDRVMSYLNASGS

On to “membrane bound IL12 encoded by OT-001895 (p40 (23-328 of WT); (G4S)3; p35 (57-253 of WT); (GS)15; CD8a Hinge and Transmembrane Domain; GS) (ligand)”, for which the Bystander effect (pSTAT4 geometric MFI on GFP+ T cells in 1 hour supernatants), ratio 1.1 (geometric MFI) is -136; the Bystander effect (pSTAT4 geometric MFI on GFP+ T cells in 1 hour supernatants), ratio 2.1 (geometric MFI) is -238; the Bystander effect (pSTAT4 geometric MFI on GFP+ T cells in 1 hour supernatants), ratio 4.3 (geometric MFI) is -277; the Bystander effect (pSTAT4 geometric MFI on GFP+ T cells in 1 hour supernatants), ratio 8.5 (geometric MFI) is -1180. For the same substance, the Bystander effect (pSTAT4 geometric MFI on GFP+ T cells in 1 hour supernatants), ratio 17.1 (geometric MFI) was -3000; the Bystander effect (pSTAT4 geometric MFI on GFP+ T cells in 1 hour supernatants), ratio 34.1 (geometric MFI) is -3720; the Transactivation (pSTAT4 geometric MFI on GFP+ cells in co-culture), ratio 1.1 (geometric MFI) came out at 4500; the Transactivation (pSTAT4 geometric MFI on GFP+ cells in co-culture), ratio 2.1 (geometric MFI) worked out at 6100. Moreover, the Transactivation (pSTAT4 geometric MFI on GFP+ cells in co-culture), ratio 4.3 (geometric MFI) came to 7170; the Transactivation (pSTAT4 geometric MFI on GFP+ cells in co-culture), ratio 8.5 (geometric MFI) worked out at 8200; the Transactivation (pSTAT4 geometric MFI on GFP+ cells in co-culture), ratio 17.1 (geometric MFI) amounted to 7720; the Transactivation (pSTAT4 geometric MFI on GFP+ cells in co-culture); table head says ratio of 64, paragraph 725 gives 34.1 (geometric MFI) stood at 7700.
As for “membrane bound IL12 encoded by OT-002011 (B7.1 transmembrane domain and short CD8 hinge domain) (ligand)”, the Bystander effect (pSTAT4 geometric MFI on GFP+ T cells in 1 hour supernatants), ratio 2.4 (geometric MFI) is -642; the Bystander effect (pSTAT4 geometric MFI on GFP+ T cells in 1 hour supernatants), ratio 4.7 (geometric MFI) is -566; the Bystander effect (pSTAT4 geometric MFI on GFP+ T cells in 1 hour supernatants), ratio 9.5 (geometric MFI) is -1130; the Bystander effect (pSTAT4 geometric MFI on GFP+ T cells in 1 hour supernatants), ratio 18.9 (geometric MFI) is -1380. Moreover, the Bystander effect (pSTAT4 geometric MFI on GFP+ T cells in 1 hour supernatants), ratio 37.9 (geometric MFI) was -2880; the Bystander effect (pSTAT4 geometric MFI on GFP+ T cells in 1 hour supernatants), ratio 75.8 (geometric MFI) was -3530; the Transactivation (pSTAT4 geometric MFI on GFP+ cells in co-culture), ratio 2.4 (geometric MFI) was 5190; the Transactivation (pSTAT4 geometric MFI on GFP+ cells in co-culture), ratio 4.7 (geometric MFI) amounted to 6680. Besides, the Transactivation (pSTAT4 geometric MFI on GFP+ cells in co-culture), ratio 9.5 (geometric MFI) came to 7760; the Transactivation (pSTAT4 geometric MFI on GFP+ cells in co-culture), ratio 18.9 (geometric MFI) is 8320; the Transactivation (pSTAT4 geometric MFI on GFP+ cells in co-culture), ratio 37.9 (geometric MFI) was 8030; the Transactivation (pSTAT4 geometric MFI on GFP+ cells in co-culture); table head says ratio of 64, paragraph 725 gives 75.8 (geometric MFI) came to 8090.
“membrane bound IL12 encoded by OT-002096 (B7.1 TM domain and IgG1 CH2-CH3 domain as a hinge domain) (ligand)”: the Bystander effect (pSTAT4 geometric MFI on GFP+ T cells in 1 hour supernatants), ratio 2.4 (geometric MFI) came to 405; the Bystander effect (pSTAT4 geometric MFI on GFP+ T cells in 1 hour supernatants), ratio 4.8 (geometric MFI) was 1050; the Bystander effect (pSTAT4 geometric MFI on GFP+ T cells in 1 hour supernatants), ratio 9.7 (geometric MFI) came out at 1650; the Bystander effect (pSTAT4 geometric MFI on GFP+ T cells in 1 hour supernatants), ratio 19.4 (geometric MFI) was 1470. The Bystander effect (pSTAT4 geometric MFI on GFP+ T cells in 1 hour supernatants), ratio 38.7 (geometric MFI) turned out to be 1470; the Bystander effect (pSTAT4 geometric MFI on GFP+ T cells in 1 hour supernatants), ratio 77.5 (geometric MFI) was determined as 955; the Transactivation (pSTAT4 geometric MFI on GFP+ cells in co-culture), ratio 2.4 (geometric MFI) came out at 2620; the Transactivation (pSTAT4 geometric MFI on GFP+ cells in co-culture), ratio 4.8 (geometric MFI) amounted to 3250. Also, the Transactivation (pSTAT4 geometric MFI on GFP+ cells in co-culture), ratio 9.7 (geometric MFI) is 4030; the Transactivation (pSTAT4 geometric MFI on GFP+ cells in co-culture), ratio 19.4 (geometric MFI) was 4180; the Transactivation (pSTAT4 geometric MFI on GFP+ cells in co-culture), ratio 38.7 (geometric MFI) was 4860; the Transactivation (pSTAT4 geometric MFI on GFP+ cells in co-culture); table head says ratio of 64, paragraph 725 gives 77.5 (geometric MFI) stood at 5220.
On to “membrane bound IL12 encoded by OT-002111 (B7.1 TM domain and B7.1 C2 domain as a hinge domain) (ligand)”, for which the Bystander effect (pSTAT4 geometric MFI on GFP+ T cells in 1 hour supernatants), ratio 1.5 (geometric MFI) was -59; the Bystander effect (pSTAT4 geometric MFI on GFP+ T cells in 1 hour supernatants), ratio 2.9 (geometric MFI) is 852; the Bystander effect (pSTAT4 geometric MFI on GFP+ T cells in 1 hour supernatants), ratio 5.9 (geometric MFI) was found to be 437; the Bystander effect (pSTAT4 geometric MFI on GFP+ T cells in 1 hour supernatants), ratio 11.8 (geometric MFI) is -58. Further, the Bystander effect (pSTAT4 geometric MFI on GFP+ T cells in 1 hour supernatants), ratio 23.6 (geometric MFI) was -1010; the Bystander effect (pSTAT4 geometric MFI on GFP+ T cells in 1 hour supernatants), ratio 47.1 (geometric MFI) was -4240; the Transactivation (pSTAT4 geometric MFI on GFP+ cells in co-culture), ratio 1.5 (geometric MFI) came out at 4660; the Transactivation (pSTAT4 geometric MFI on GFP+ cells in co-culture), ratio 2.9 (geometric MFI) amounted to 6540. Besides, the Transactivation (pSTAT4 geometric MFI on GFP+ cells in co-culture), ratio 5.9 (geometric MFI) is 7210; the Transactivation (pSTAT4 geometric MFI on GFP+ cells in co-culture), ratio 11.8 (geometric MFI) came out at 7660; the Transactivation (pSTAT4 geometric MFI on GFP+ cells in co-culture), ratio 23.6 (geometric MFI) was 7630; the Transactivation (pSTAT4 geometric MFI on GFP+ cells in co-culture); table head says ratio of 64, paragraph 725 gives 47.1 (geometric MFI) turned out to be 5460.
On to “membrane bound IL12 encoded by OT-002112 (B7.1 TM domain and FcgammaR2b (Fcgr2b) as a hinge domain) (ligand)”, for which the Bystander effect (pSTAT4 geometric MFI on GFP+ T cells in 1 hour supernatants), ratio 1.3 (geometric MFI) is -1; the Bystander effect (pSTAT4 geometric MFI on GFP+ T cells in 1 hour supernatants), ratio 2.5 (geometric MFI) was -818; the Bystander effect (pSTAT4 geometric MFI on GFP+ T cells in 1 hour supernatants), ratio 5 (geometric MFI) is -232; the Bystander effect (pSTAT4 geometric MFI on GFP+ T cells in 1 hour supernatants), ratio 10.1 (geometric MFI) is -988. Further, the Bystander effect (pSTAT4 geometric MFI on GFP+ T cells in 1 hour supernatants), ratio 20.2 (geometric MFI) was -1400; the Bystander effect (pSTAT4 geometric MFI on GFP+ T cells in 1 hour supernatants), ratio 40.4 (geometric MFI) is -2660; the Transactivation (pSTAT4 geometric MFI on GFP+ cells in co-culture), ratio 1.3 (geometric MFI) came out at 5110; the Transactivation (pSTAT4 geometric MFI on GFP+ cells in co-culture), ratio 2.5 (geometric MFI) stood at 6070. The Transactivation (pSTAT4 geometric MFI on GFP+ cells in co-culture), ratio 5 (geometric MFI) came out at 7760; the Transactivation (pSTAT4 geometric MFI on GFP+ cells in co-culture), ratio 10.1 (geometric MFI) came out at 8120; the Transactivation (pSTAT4 geometric MFI on GFP+ cells in co-culture), ratio 20.2 (geometric MFI) amounted to 8420; the Transactivation (pSTAT4 geometric MFI on GFP+ cells in co-culture); table head says ratio of 64, paragraph 725 gives 40.4 (geometric MFI) came out at 8020.
Take “secreted IL12 encoded by OT-001356 (ORF2: p40 signal sequence; p40 (23-328 of WT); Linker ((G4S)3); p35 (57-253 of WT); BamHI (GS)) (ligand)”: the Bystander effect (pSTAT4 geometric MFI on GFP+ T cells in 1 hour supernatants), CAR-IL12+:GFP+ ratio 73.9 (geometric MFI) was -2620; the Bystander effect (pSTAT4 geometric MFI on GFP+ T cells in 1 hour supernatants), ratio 2.3 (geometric MFI) is -1090; the Bystander effect (pSTAT4 geometric MFI on GFP+ T cells in 1 hour supernatants), ratio 4.6 (geometric MFI) was -518; the Bystander effect (pSTAT4 geometric MFI on GFP+ T cells in 1 hour supernatants), ratio 9.2 (geometric MFI) is -86. For the same substance, the Bystander effect (pSTAT4 geometric MFI on GFP+ T cells in 1 hour supernatants), ratio 18.5 (geometric MFI) was -226; the Bystander effect (pSTAT4 geometric MFI on GFP+ T cells in 1 hour supernatants), ratio 37 (geometric MFI) was -1400; the Transactivation (pSTAT4 geometric MFI on GFP+ cells in co-culture), ratio 2.3 (geometric MFI) came to 2840; the Transactivation (pSTAT4 geometric MFI on GFP+ cells in co-culture), ratio 4.6 (geometric MFI) came out at 4370. Besides, the Transactivation (pSTAT4 geometric MFI on GFP+ cells in co-culture), ratio 9.2 (geometric MFI) was determined as 5570; the Transactivation (pSTAT4 geometric MFI on GFP+ cells in co-culture), ratio 18.5 (geometric MFI) came to 6420; the Transactivation (pSTAT4 geometric MFI on GFP+ cells in co-culture), ratio 37 (geometric MFI) is 6940; the Transactivation (pSTAT4 geometric MFI on GFP+ cells in co-culture); table head says CAR-IL12+:GFP+ ratio of 64, paragraph 725 gives 73.9 (geometric MFI) is 6450.
